Biological target: T1, β-catenin (UniProt P35222 1-781)
T1 sequence (looked up): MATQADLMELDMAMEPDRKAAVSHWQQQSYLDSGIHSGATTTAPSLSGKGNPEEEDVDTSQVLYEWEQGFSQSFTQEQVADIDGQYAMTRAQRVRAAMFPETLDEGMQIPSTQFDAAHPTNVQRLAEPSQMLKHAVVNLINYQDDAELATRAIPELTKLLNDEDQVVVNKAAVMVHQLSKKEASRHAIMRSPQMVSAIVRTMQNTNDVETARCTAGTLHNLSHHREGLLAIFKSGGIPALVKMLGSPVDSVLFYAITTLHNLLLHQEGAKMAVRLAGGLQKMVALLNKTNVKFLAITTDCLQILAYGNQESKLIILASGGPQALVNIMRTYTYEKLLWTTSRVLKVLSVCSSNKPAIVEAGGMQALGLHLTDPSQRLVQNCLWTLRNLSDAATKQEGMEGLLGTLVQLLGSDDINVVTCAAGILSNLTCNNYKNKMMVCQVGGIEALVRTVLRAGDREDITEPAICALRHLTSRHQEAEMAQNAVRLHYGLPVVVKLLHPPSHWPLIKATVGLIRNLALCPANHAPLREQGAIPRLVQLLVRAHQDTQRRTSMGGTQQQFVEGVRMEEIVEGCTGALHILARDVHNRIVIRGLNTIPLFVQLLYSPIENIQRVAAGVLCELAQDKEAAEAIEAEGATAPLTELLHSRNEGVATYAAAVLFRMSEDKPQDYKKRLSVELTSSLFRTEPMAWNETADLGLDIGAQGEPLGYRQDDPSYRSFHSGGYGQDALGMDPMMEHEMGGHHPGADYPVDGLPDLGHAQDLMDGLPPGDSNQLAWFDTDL
Assay: cell-based or functional assay

B1: SnP_8 uAb (designed binder)
chain: PTAPPYDSLLVFDYEGGSGSGRLNFGDDIPSALRIAKKKRWNSIEERRIHQESELHSYLSRLIAAERERELEECQRNHEGDEDDSHVRAQQACIEAKHDKYMADMDELFSQVDEKRKKRDIPDYLCGKISFELMREPCITPSGITYDRKDIEEHLQRVGHFDPVTRSPLTQEQLIPNLAMKEVIDAFISENGWVEDY
modifications: biotinylated with EZ-Link NHS-Biotin
degradation of endogenous cytosolic β-catenin in transfected DLD1 cells (immunoblot densitometry, relative to non-transfected control): > 60%

From article PMC10598214, “SaLT&PepPr is an interface-predicting language model for designing peptide-guided protein degraders” (Communications Biology, 2023)
